Experimental data taken from paper PMC3472523 (2012).
Positions of bridges follow the written chain, without caps; N, C: chain ends. fluorescein = fluorescein, an N-terminal fluorescent label

T1: Mcl-1 (Mus musculus, UniProt P97287)
T1 chain: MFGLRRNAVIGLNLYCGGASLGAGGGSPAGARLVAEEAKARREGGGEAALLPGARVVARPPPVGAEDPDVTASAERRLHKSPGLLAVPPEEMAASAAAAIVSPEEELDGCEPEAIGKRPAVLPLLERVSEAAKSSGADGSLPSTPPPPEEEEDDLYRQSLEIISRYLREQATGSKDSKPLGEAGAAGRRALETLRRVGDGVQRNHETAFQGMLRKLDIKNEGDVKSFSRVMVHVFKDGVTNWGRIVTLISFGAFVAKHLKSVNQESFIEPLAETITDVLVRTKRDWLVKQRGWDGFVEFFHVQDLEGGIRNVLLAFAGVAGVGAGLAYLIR

B1: Fl-1 (Bph-cross-linked Noxa peptide 1) (peptide)
chain: fluorescein-AACLRRIGDCVNLRQKLLN-NH2
modifications: linker 3-10 via biphenyl
B2: Noxa peptide 8 (peptide)
chain: AACLRAIGDCVNLAQALLN
HELM: PEPTIDE1{[COC(=O)[*:2]].[meA].[meA].[dC].L.R.A.I.G.D.C.V.N.L.A.Q.A.L.L.N.[am]}|CHEM1{[c1cc(-c2ccc(C[*:2])cc2)ccc1C[*:1]]}$PEPTIDE1,CHEM1,4:R3-1:R1|PEPTIDE1,CHEM1,11:R3-1:R2$$$V2.0
SMILES: CC[C@H](C)[C@@H]1NC(=O)[C@H](C)NC(=O)[C@H](CCCNC(=N)N)NC(=O)[C@H](CC(C)C)NC(=O)[C@H](NC(=O)[C@H](C)N(C)C(=O)[C@H](C)N(C)C(=O)OC)CSCc2ccc(cc2)-c2ccc(cc2)CSC[C@@H](C(=O)N[C@H](C(=O)N[C@@H](CC(N)=O)C(=O)N[C@@H](CC(C)C)C(=O)N[C@@H](C)C(=O)N[C@@H](CCC(N)=O)C(=O)N[C@@H](C)C(=O)N[C@@H](CC(C)C)C(=O)N[C@@H](CC(C)C)C(=O)N[C@@H](CC(N)=O)C(N)=O)C(C)C)NC(=O)[C@H](CC(=O)O)NC(=O)CNC1=O
B3: Noxa peptide 5 (peptide)
chain: AACLRAIGDCVNLAQALLN
HELM: PEPTIDE1{[ac].A.A.[dC].L.R.A.I.G.D.C.V.N.L.A.Q.A.L.L.N.[am]}|CHEM1{[c1cc(-c2ccc(C[*:2])cc2)ccc1C[*:1]]}$PEPTIDE1,CHEM1,4:R3-1:R1|PEPTIDE1,CHEM1,11:R3-1:R2$$$V2.0
SMILES: CC[C@H](C)[C@@H]1NC(=O)[C@H](C)NC(=O)[C@H](CCCNC(=N)N)NC(=O)[C@H](CC(C)C)NC(=O)[C@H](NC(=O)[C@H](C)NC(=O)[C@H](C)NC(C)=O)CSCc2ccc(cc2)-c2ccc(cc2)CSC[C@@H](C(=O)N[C@H](C(=O)N[C@@H](CC(N)=O)C(=O)N[C@@H](CC(C)C)C(=O)N[C@@H](C)C(=O)N[C@@H](CCC(N)=O)C(=O)N[C@@H](C)C(=O)N[C@@H](CC(C)C)C(=O)N[C@@H](CC(C)C)C(=O)N[C@@H](CC(N)=O)C(N)=O)C(C)C)NC(=O)[C@H](CC(=O)O)NC(=O)CNC1=O
B4: Noxa peptide 3 (peptide)
chain: AACLRAIGDCVNLRQKLLN
HELM: PEPTIDE1{[ac].A.A.[dC].L.R.A.I.G.D.C.V.N.L.R.Q.K.L.L.N.[am]}|CHEM1{[c1cc(-c2ccc(C[*:2])cc2)ccc1C[*:1]]}$PEPTIDE1,CHEM1,4:R3-1:R1|PEPTIDE1,CHEM1,11:R3-1:R2$$$V2.0
SMILES: CC[C@H](C)[C@@H]1NC(=O)[C@H](C)NC(=O)[C@H](CCCNC(=N)N)NC(=O)[C@H](CC(C)C)NC(=O)[C@H](NC(=O)[C@H](C)NC(=O)[C@H](C)NC(C)=O)CSCc2ccc(cc2)-c2ccc(cc2)CSC[C@@H](C(=O)N[C@H](C(=O)N[C@@H](CC(N)=O)C(=O)N[C@@H](CC(C)C)C(=O)N[C@@H](CCCNC(=N)N)C(=O)N[C@@H](CCC(N)=O)C(=O)N[C@@H](CCCCN)C(=O)N[C@@H](CC(C)C)C(=O)N[C@@H](CC(C)C)C(=O)N[C@@H](CC(N)=O)C(N)=O)C(C)C)NC(=O)[C@H](CC(=O)O)NC(=O)CNC1=O
B5: Noxa peptide 4 (peptide)
chain: AACLRAIGDCVNLAQKLLN
HELM: PEPTIDE1{[ac].A.A.[dC].L.R.A.I.G.D.C.V.N.L.A.Q.K.L.L.N.[am]}|CHEM1{[c1cc(-c2ccc(C[*:2])cc2)ccc1C[*:1]]}$PEPTIDE1,CHEM1,4:R3-1:R1|PEPTIDE1,CHEM1,11:R3-1:R2$$$V2.0
SMILES: CC[C@H](C)[C@@H]1NC(=O)[C@H](C)NC(=O)[C@H](CCCNC(=N)N)NC(=O)[C@H](CC(C)C)NC(=O)[C@H](NC(=O)[C@H](C)NC(=O)[C@H](C)NC(C)=O)CSCc2ccc(cc2)-c2ccc(cc2)CSC[C@@H](C(=O)N[C@H](C(=O)N[C@@H](CC(N)=O)C(=O)N[C@@H](CC(C)C)C(=O)N[C@@H](C)C(=O)N[C@@H](CCC(N)=O)C(=O)N[C@@H](CCCCN)C(=O)N[C@@H](CC(C)C)C(=O)N[C@@H](CC(C)C)C(=O)N[C@@H](CC(N)=O)C(N)=O)C(C)C)NC(=O)[C@H](CC(=O)O)NC(=O)CNC1=O
B6: Noxa peptide 7 (peptide)
chain: AACLRRIGDCVNLRQKLLN
HELM: PEPTIDE1{[COC(=O)[*:2]].[meA].[meA].[dC].L.R.R.I.G.D.C.V.N.L.R.Q.K.L.L.N.[am]}|CHEM1{[c1cc(-c2ccc(C[*:2])cc2)ccc1C[*:1]]}$PEPTIDE1,CHEM1,4:R3-1:R1|PEPTIDE1,CHEM1,11:R3-1:R2$$$V2.0
SMILES: CC[C@H](C)[C@@H]1NC(=O)[C@H](CCCNC(=N)N)NC(=O)[C@H](CCCNC(=N)N)NC(=O)[C@H](CC(C)C)NC(=O)[C@H](NC(=O)[C@H](C)N(C)C(=O)[C@H](C)N(C)C(=O)OC)CSCc2ccc(cc2)-c2ccc(cc2)CSC[C@@H](C(=O)N[C@H](C(=O)N[C@@H](CC(N)=O)C(=O)N[C@@H](CC(C)C)C(=O)N[C@@H](CCCNC(=N)N)C(=O)N[C@@H](CCC(N)=O)C(=O)N[C@@H](CCCCN)C(=O)N[C@@H](CC(C)C)C(=O)N[C@@H](CC(C)C)C(=O)N[C@@H](CC(N)=O)C(N)=O)C(C)C)NC(=O)[C@H](CC(=O)O)NC(=O)CNC1=O
B7: Noxa peptide 6 (peptide)
chain: AACLRRIGDCVNLRQKLLN
HELM: PEPTIDE1{[COC(=O)[*:2]].[meA].A.[dC].L.R.R.I.G.D.C.V.N.L.R.Q.K.L.L.N.[am]}|CHEM1{[c1cc(-c2ccc(C[*:2])cc2)ccc1C[*:1]]}$PEPTIDE1,CHEM1,4:R3-1:R1|PEPTIDE1,CHEM1,11:R3-1:R2$$$V2.0
SMILES: CC[C@H](C)[C@@H]1NC(=O)[C@H](CCCNC(=N)N)NC(=O)[C@H](CCCNC(=N)N)NC(=O)[C@H](CC(C)C)NC(=O)[C@H](NC(=O)[C@H](C)NC(=O)[C@H](C)N(C)C(=O)OC)CSCc2ccc(cc2)-c2ccc(cc2)CSC[C@@H](C(=O)N[C@H](C(=O)N[C@@H](CC(N)=O)C(=O)N[C@@H](CC(C)C)C(=O)N[C@@H](CCCNC(=N)N)C(=O)N[C@@H](CCC(N)=O)C(=O)N[C@@H](CCCCN)C(=O)N[C@@H](CC(C)C)C(=O)N[C@@H](CC(C)C)C(=O)N[C@@H](CC(N)=O)C(N)=O)C(C)C)NC(=O)[C@H](CC(=O)O)NC(=O)CNC1=O
B8: Noxa peptide 2 (peptide)
chain: AACLRRIGDCVNLRQKLLN
HELM: PEPTIDE1{[ac].A.A.[dC].L.R.R.I.G.D.C.V.N.L.R.Q.K.L.L.N.[am]}|CHEM1{[c1cc(-c2ccc(C[*:2])cc2)ccc1C[*:1]]}$PEPTIDE1,CHEM1,4:R3-1:R1|PEPTIDE1,CHEM1,11:R3-1:R2$$$V2.0
SMILES: CC[C@H](C)[C@@H]1NC(=O)[C@H](CCCNC(=N)N)NC(=O)[C@H](CCCNC(=N)N)NC(=O)[C@H](CC(C)C)NC(=O)[C@H](NC(=O)[C@H](C)NC(=O)[C@H](C)NC(C)=O)CSCc2ccc(cc2)-c2ccc(cc2)CSC[C@@H](C(=O)N[C@H](C(=O)N[C@@H](CC(N)=O)C(=O)N[C@@H](CC(C)C)C(=O)N[C@@H](CCCNC(=N)N)C(=O)N[C@@H](CCC(N)=O)C(=O)N[C@@H](CCCCN)C(=O)N[C@@H](CC(C)C)C(=O)N[C@@H](CC(C)C)C(=O)N[C@@H](CC(N)=O)C(N)=O)C(C)C)NC(=O)[C@H](CC(=O)O)NC(=O)CNC1=O
B9: Noxa peptide 1 (peptide)
chain: AACLRRIGDCVNLRQKLLN
HELM: PEPTIDE1{[ac].A.A.C.L.R.R.I.G.D.C.V.N.L.R.Q.K.L.L.N.[am]}|CHEM1{[c1cc(-c2ccc(C[*:2])cc2)ccc1C[*:1]]}$PEPTIDE1,CHEM1,4:R3-1:R1|PEPTIDE1,CHEM1,11:R3-1:R2$$$V2.0
SMILES: CC[C@H](C)[C@@H]1NC(=O)[C@H](CCCNC(=N)N)NC(=O)[C@H](CCCNC(=N)N)NC(=O)[C@H](CC(C)C)NC(=O)[C@@H](NC(=O)[C@H](C)NC(=O)[C@H](C)NC(C)=O)CSCc2ccc(cc2)-c2ccc(cc2)CSC[C@@H](C(=O)N[C@H](C(=O)N[C@@H](CC(N)=O)C(=O)N[C@@H](CC(C)C)C(=O)N[C@@H](CCCNC(=N)N)C(=O)N[C@@H](CCC(N)=O)C(=O)N[C@@H](CCCCN)C(=O)N[C@@H](CC(C)C)C(=O)N[C@@H](CC(C)C)C(=O)N[C@@H](CC(N)=O)C(N)=O)C(C)C)NC(=O)[C@H](CC(=O)O)NC(=O)CNC1=O

biological target: Bcl-xL (Homo sapiens, UniProt Q07817); test: fluorescence polarization
Sequence (Q07817 whole entry): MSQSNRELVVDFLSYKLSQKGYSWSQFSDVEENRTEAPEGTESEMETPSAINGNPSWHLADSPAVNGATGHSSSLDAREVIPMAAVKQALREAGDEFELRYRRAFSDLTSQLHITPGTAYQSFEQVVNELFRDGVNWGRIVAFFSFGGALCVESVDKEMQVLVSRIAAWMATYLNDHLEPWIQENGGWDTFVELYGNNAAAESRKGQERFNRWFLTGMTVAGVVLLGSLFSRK

Kd | Binder
> 1000 nM | B1

Biological target: T1, Mcl-1
Test: competitive fluorescence polarization

Ki | Binder
22 nM | B2
29 nM | B3
23 nM | B4
28 nM | B5
22 nM | B6
32 nM | B7
54 nM | B8
10 nM | B9
